Measurements taken from article PMC10786891, “Massively parallel profiling of RNA-targeting CRISPR-Cas13d”.
Residue numbers refer to the chain shown, from its start. Names may count otherwise.

T1: EsCas13d, nuclease-dead (Eubacterium siraeum, UniProt B0MS50, R295A;H300A;R849A;H854A)
T1 sequence: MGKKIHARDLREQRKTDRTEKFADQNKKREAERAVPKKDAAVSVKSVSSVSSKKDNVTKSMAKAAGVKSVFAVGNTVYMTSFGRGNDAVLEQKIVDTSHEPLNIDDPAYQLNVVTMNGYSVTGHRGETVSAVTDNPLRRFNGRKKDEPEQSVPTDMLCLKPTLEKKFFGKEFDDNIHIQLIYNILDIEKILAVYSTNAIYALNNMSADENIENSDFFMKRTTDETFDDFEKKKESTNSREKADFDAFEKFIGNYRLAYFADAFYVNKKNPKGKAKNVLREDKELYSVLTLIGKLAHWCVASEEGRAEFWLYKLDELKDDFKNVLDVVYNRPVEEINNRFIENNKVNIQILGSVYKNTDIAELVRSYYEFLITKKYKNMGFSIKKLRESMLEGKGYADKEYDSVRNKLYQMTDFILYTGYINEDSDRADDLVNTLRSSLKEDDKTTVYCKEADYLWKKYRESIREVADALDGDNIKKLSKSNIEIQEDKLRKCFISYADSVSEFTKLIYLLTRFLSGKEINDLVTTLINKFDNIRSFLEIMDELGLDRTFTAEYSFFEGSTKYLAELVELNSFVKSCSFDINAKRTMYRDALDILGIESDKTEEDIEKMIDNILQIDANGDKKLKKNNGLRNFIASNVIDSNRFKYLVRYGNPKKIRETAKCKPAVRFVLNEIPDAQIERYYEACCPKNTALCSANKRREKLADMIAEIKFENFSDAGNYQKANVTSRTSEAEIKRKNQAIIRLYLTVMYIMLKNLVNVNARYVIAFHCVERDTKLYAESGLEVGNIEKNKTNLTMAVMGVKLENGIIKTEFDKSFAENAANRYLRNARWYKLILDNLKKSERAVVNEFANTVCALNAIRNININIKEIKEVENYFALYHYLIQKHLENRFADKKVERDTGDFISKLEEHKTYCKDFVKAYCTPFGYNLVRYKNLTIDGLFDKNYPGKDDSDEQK

B1: target 1 C4G,C7U (mixed)
RNA 1: CACCCGUGCAAAAAUGCAGGGGUCUAAAACUGAGCGGAUAACCUCUCUAUGG
RNA 2: GGGAAUGGAUCCACAUCUACGAAUUCGUACCAUAGAGAGGUUAUUCGGUCACCGAGAUCGGAAGAGCACACGU
B2: target 1 insA 3' of 8,insU 3' of 2 (mixed)
RNA 1: B1 RNA 1
RNA 2: GGGAAUGGAUCCACAUCUACGAAUUCGUACCAUAGAGAGGUUAUACCGCUCUACCGAGAUCGGAAGAGCACACGU
B3: target 1 A1G,A14G (mixed)
RNA 1: B1 RNA 1
RNA 2: B1 RNA 2 with A38G, U45C, G48C, A51G
B4: target 2 MT 5'PFS UUG 3'PFS AAU (mixed)
RNA 1: CACCCGUGCAAAAUUGCAGGGGUCUAAAACCUUCUCCAAAUUGUUUCAUCCU
RNA 2: GGGAAUGGAUCCACAUCUACGAAUUCUUGAGGAUGAAACAAUUUGGAGAAGAAUAGAUCGGAAGAGCACACGU
B5: target 2 MT 5'PFS UUU 3'PFS CAG (mixed)
RNA 1: B4 RNA 1
RNA 2: B4 RNA 2 with G29U, A52C, U54G
B6: target 2 MT 5'PFS AAC 3'PFS CGG (mixed)
RNA 1: B4 RNA 1
RNA 2: B4 RNA 2 with U27A, U28A, G29C, A52C, A53G, U54G
B7: target 2 MT 5'PFS GGU 3'PFS AGC (mixed)
RNA 1: B4 RNA 1
RNA 2: B4 RNA 2 with U27G, U28G, G29U, A53G, U54C
B8: target 2 MT 5'PFS GUA 3'PFS UAA (mixed)
RNA 1: B4 RNA 1
RNA 2: B4 RNA 2 with U27G, G29A, A52U, U54A
B9: target 2 MT 5'PFS AGG 3'PFS CGA (mixed)
RNA 1: B4 RNA 1
RNA 2: B4 RNA 2 with U27A, U28G, A52C, A53G, U54A
B10: target 2 MT 5'PFS UGA 3'PFS UUA (mixed)
RNA 1: B4 RNA 1
RNA 2: B4 RNA 2 with U28G, G29A, A52U, A53U, U54A
B11: target 2 MT 5'PFS GGU 3'PFS AGA (mixed)
RNA 1: B4 RNA 1
RNA 2: B4 RNA 2 with U27G, U28G, G29U, A53G, U54A
B12: target 2 MT 5'PFS AAA 3'PFS AGC (mixed)
RNA 1: B4 RNA 1
RNA 2: B4 RNA 2 with U27A, U28A, G29A, A53G, U54C
B13: target 2 MT 5'PFS UAC 3'PFS UUA (mixed)
RNA 1: B4 RNA 1
RNA 2: B4 RNA 2 with U28A, G29C, A52U, A53U, U54A
B14: target 2 MT 5'PFS AGG 3'PFS AUU (mixed)
RNA 1: B4 RNA 1
RNA 2: B4 RNA 2 with U27A, U28G, A53U
B15: target 2 MT 5'PFS UUU 3'PFS CAA (mixed)
RNA 1: B4 RNA 1
RNA 2: B4 RNA 2 with G29U, A52C, U54A
B16: target 2 MT 5'PFS GUU 3'PFS UGU (mixed)
RNA 1: B4 RNA 1
RNA 2: B4 RNA 2 with U27G, G29U, A52U, A53G
B17: target 2 MT 5'PFS UCU 3'PFS AGC (mixed)
RNA 1: B4 RNA 1
RNA 2: B4 RNA 2 with U28C, G29U, A53G, U54C
B18: target 2 MT 5'PFS UUG 3'PFS UUA (mixed)
RNA 1: B4 RNA 1
RNA 2: B4 RNA 2 with A52U, A53U, U54A
B19: target 2 MT 5'PFS UUU 3'PFS CAC (mixed)
RNA 1: B4 RNA 1
RNA 2: B4 RNA 2 with G29U, A52C, U54C
B20: target 2 MT 5'PFS UAC 3'PFS UUG (mixed)
RNA 1: B4 RNA 1
RNA 2: B4 RNA 2 with U28A, G29C, A52U, A53U, U54G
B21: target 2 MT 5'PFS GUA 3'PFS UAG (mixed)
RNA 1: B4 RNA 1
RNA 2: B4 RNA 2 with U27G, G29A, A52U, U54G
B22: target 2 MT 5'PFS UUU 3'PFS CAU (mixed)
RNA 1: B4 RNA 1
RNA 2: B4 RNA 2 with G29U, A52C
B23: target 2 MT 5'PFS GGU 3'PFS AGG (mixed)
RNA 1: B4 RNA 1
RNA 2: B4 RNA 2 with U27G, U28G, G29U, A53G, U54G
B24: target 2 MT 5'PFS UGA 3'PFS UUC (mixed)
RNA 1: B4 RNA 1
RNA 2: B4 RNA 2 with U28G, G29A, A52U, A53U, U54C
B25: target 2 MT 5'PFS AAC 3'PFS CGC (mixed)
RNA 1: B4 RNA 1
RNA 2: B4 RNA 2 with U27A, U28A, G29C, A52C, A53G, U54C
B26: target 2 MT 5'PFS AAG 3'PFS UAU (mixed)
RNA 1: B4 RNA 1
RNA 2: B4 RNA 2 with U27A, U28A, A52U
B27: target 2 MT 5'PFS GUA 3'PFS GAC (mixed)
RNA 1: B4 RNA 1
RNA 2: B4 RNA 2 with U27G, G29A, A52G, U54C
B28: target 2 MT 5'PFS GGC 3'PFS AAU (mixed)
RNA 1: B4 RNA 1
RNA 2: B4 RNA 2 with U27G, U28G, G29C
B29: target 2 MT 5'PFS GUA 3'PFS GAA (mixed)
RNA 1: B4 RNA 1
RNA 2: B4 RNA 2 with U27G, G29A, A52G, U54A
B30: target 2 MT 5'PFS AAG 3'PFS UAA (mixed)
RNA 1: B4 RNA 1
RNA 2: B4 RNA 2 with U27A, U28A, A52U, U54A
B31: target 2 MT 5'PFS AAA 3'PFS AGG (mixed)
RNA 1: B4 RNA 1
RNA 2: B4 RNA 2 with U27A, U28A, G29A, A53G, U54G
B32: target 2 MT 5'PFS GUA 3'PFS UAC (mixed)
RNA 1: B4 RNA 1
RNA 2: B4 RNA 2 with U27G, G29A, A52U, U54C
B33: target 2 MT 5'PFS UAC 3'PFS UUU (mixed)
RNA 1: B4 RNA 1
RNA 2: B4 RNA 2 with U28A, G29C, A52U, A53U

target: T1, EsCas13d, nuclease-dead; assay: crRNA (strand 1, pre-loaded); Mg2+; 40 mM Tris-HCl pH 7.5, 150 mM NaCl, 6 mM MgCl2, 1 mM DTT, 0.1% Tween-20, 0.2 mg/ml BSA; 25 C; 10 min per concentration, then washed; settings: tags: His6-TwinStrep-SUMO cleaved; N-terminal SNAP kept (SNAP-Surface 488); label: 3' end held by stalled T7 RNA polymerase

Binder | Kd [nM]
B1 | 3.78 ± 0.31
B2 | 22.5 ± 1.4
B3 | 14.3 ± 0.8
B4 | 9.8 ± 1.2
B5 | 5 ± 0.4
B6 | 3.2 ± 0.5
B7 | 13.8 ± 1.9
B8 | 5.5 ± 0.6
B9 | 4.5 ± 0.5
B10 | 10.7 ± 1.9
B11 | 10.6 ± 1.5
B12 | 4.2 ± 1.5
B13 | 11.1 ± 2.3
B14 | 4.8 ± 0.8
B15 | 7.6 ± 1
B16 | 21 ± 2.3
B17 | 11 ± 2.3

Binder | Kd [nM]
B18 | 29 ± 7
B19 | 7.5 ± 1
B20 | 8 ± 1.4
B21 | 11 ± 1.8
B22 | 6.8 ± 0.8
B23 | 14.4 ± 1.3
B24 | 26 ± 7
B25 | 4.7 ± 1.1
B26 | 3.6 ± 0.6
B27 | 7.9 ± 1.4
B28 | 8.5 ± 0.9
B29 | 6.7 ± 2.4
B30 | 3.7 ± 0.7
B31 | 4.7 ± 0.9
B32 | 7.7 ± 0.7
B33 | 11.9 ± 1.9
